{"source": "patent EP2546652A1", "key": {"[1]": {"biological_target": "nervous necrosis virus (NNV) particles (nervous necrosis virus (from grouper))", "assay": "immunomagnetic reduction (IMR), logistic fit of IMR (%) against NNV concentration"}, "[2]": {"biological_target": "nervous necrosis virus (NNV) particles (nervous necrosis virus (from grouper))", "assay": "immunomagnetic reduction (IMR), anti-NNV magnetic nanoparticles mixed with NNV solution; value at 5 TCID50/ml NNV"}, "[3]": {"biological_target": "nervous necrosis virus (NNV) particles (nervous necrosis virus (from grouper))", "assay": "immunomagnetic reduction (IMR), anti-NNV magnetic nanoparticles mixed with NNV solution; value at 10^7 TCID50/ml NNV"}}}
{"substance": "nervous necrosis virus antibody (anti-nervous necrosis virus), covalently bound to the dextran shell of Fe3O4 magnetic nanoparticles", "values": [{"measurement": "B (high-end value of the IMR signal, logistic fit)", "setting": "[1]", "value": 3.47, "unit": "%"}, {"measurement": "φo (fitting parameter of the logistic function of IMR signal against NNV concentration)", "setting": "[1]", "value": 26700, "unit": "TCID50/ml"}, {"measurement": "IMR signal", "setting": "[2]", "value": 0.84, "unit": "%"}, {"measurement": "IMR signal", "setting": "[3]", "value": 3.04, "unit": "%"}]}
